From publication PMC5960627
Where two headings read alike, the source gives them in different places.

Key:
Experiment in all cases: other fluorescence titration
[1] = biological target: BSAT1R_(125-141), FRET biosensor with AT1R a.a. 125-141 (SMD2) between EYFPc and ECFP (human)
[2] = biological target: BSAT1R_(309-327mut), FRET biosensor with mutant AT1R a.a. 309-327 (SMD4JM) between EYFPc and ECFP (human)
[3] = biological target: BSAT1R_(215-242), FRET biosensor with AT1R a.a. 215-242 (entire SMD3) between EYFPc and ECFP (human)
[4] = biological target: BSAT1R_(215-232), FRET biosensor with AT1R a.a. 215-232 (part of SMD3) between EYFPc and ECFP (human)
[5] = biological target: BSAT1R_(125-141mut), FRET biosensor with mutant AT1R a.a. 125-141 (SMD2) between EYFPc and ECFP (human)
[6] = biological target: BSAT1R_(215-242mut), FRET biosensor with mutant AT1R a.a. 215-242 (SMD3) between EYFPc and ECFP (human)
[7] = biological target: BSAT1R_(309-327), FRET biosensor with AT1R a.a. 309-327 (SMD4JM) between EYFPc and ECFP (human)
[8] = biological target: BSAT1R_(309-327), FRET biosensor with AT1R a.a. 309-327 (SMD4JM) between EYFPc and ECFP (human); remark: listed apart in the source

Sequence of BSAT1R_(215-242), FRET biosensor with AT1R a.a. 215-242 (entire SMD3) between EYFPc and ECFP (human) (P30556 215-242): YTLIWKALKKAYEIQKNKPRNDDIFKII

Calmodulin (from UniProt P0DP23 1-149) (natural protein)
EC50(Ca2+) of the interaction [1]: 4100 nM | EC50(Ca2+) of the interaction, species Sp1mut [2]: 770 nM | EC50(Ca2+) of the interaction, species Sp2mut [2]: 9600 nM | EC50(Ca2+) of the interaction [3]: 150 nM | EC50(Ca2+) of the interaction [4]: 300 nM | EC50(Ca2+) of the interaction [5]: 17600 nM | EC50(Ca2+) of the interaction [6]: 1490 nM | EC50(Ca2+) of the interaction, species Sp1 [7]: 310 nM | EC50(Ca2+) of the interaction, species Sp2 [7]: 3170 nM | EC50(Ca2+) of the interaction, species Sp2 [8]: 3180 nM
